Source: the DeepSol protein solubility set

Assay: soluble on expression in E. coli; label from the status in PepcDB or PDB records
In the case of “MDFELCPKFEKTFSILGKKWNGLIIDVLLEDGPQRFKNLARRIPKCSDRVLVVRLKELEENGIVSRVTHCDSALIEYRLTTKGQDLRQVMDTVHNWSDKWFSPAES”, the “soluble on expression in E. coli” value was “not soluble”.
With “MSSQRWLWRNQHSVQTNIGSREKDLKITKTKKIKKKHERAYELLAEAAYSDPFAALGPFIDDGEGSLRVWMPGANKVELLVNGEPRVALERDGDSGFILKEQRDLHLTHYRLAVDWNGVEQIIDDPYQYHNIYQEYEHLHTPKDM” the “soluble on expression in E. coli” value was “not soluble”.
For “MSLKIVNITTQVESIELKTPFKTALRQTSHVEFVRVEVECDNGFVGIGEASATKVITGEDIYIILTSIASVEELFLNLTCEEALGALHTKCAIGSSAKASLDIAFVHLLSQEAKKPLYEYFGATDKSALKSDITISLNEADVMLNDAKKAFSNGMDILKIKVGSDILHAIDIVRKIAKELPECDILVDANQAWSFENTVLFIENMLNTPIKLIEQPVEAPNLDGLKKITELSHIPILADEAVFTLKDAKKVIEEKCADMINIKLMKCGGVSKAIEILEFARNREFKCMLGSMLEGPYSINMALHLAFAYRDVIEFVDLDSPLLYKEMPKELDFVFDGCEIKPLEGHHHHHH”, the “soluble on expression in E. coli” value was “soluble”.
With “MITLWENRDKWEEDSNLHGLLLTIIKNKALNYLAHLQVRLRAEEEINSHSQRELDLRISTLEACEPDAIFDSEIQHIVQKALKRMPNQSRQIFILSRYQNTPNKKIAEQLGISVKSVEFHITKALKILRTELKDYLVSILF” the “soluble on expression in E. coli” value was “not soluble”.
In the case of “MGSDKIHHHHHHMMRDTPLLHRDDPAKDPLVGHIKVTREDWVNTARDVLVNSGVAQVKIATLAGRLDVSRSSFYWYFQNRDELLSALLQDWQTRNTRSITDHCARPSRSIAQALCNFFRCFVDTRQFDPGLDFAIREWARRNEDVRDAIDAADTARLDAVRAMFDRHDYAPEDADARARILYFMQLGYHALDLREDMETRMSRVSAYVLGFTGISPQNTDIEEFLDYVGDLAPHGISGASQRA”, the “soluble on expression in E. coli” value was “not soluble”.
In the case of “MSTEKLEASEEPQAPLANTSETNSIKGDTENIVTVFDLANEIEKSLKDVQRQMKENDDEFSRSIQAIEDKLNKMSR”, the “soluble on expression in E. coli” value was “not soluble”.
With “MSLKLQASNVTNKNDPKSINSRVFIGNLNTALVKKSDVETIFSKYGRVAGCSVHKGYAFVQYSNERHARAAVLGENGRVLAGQTLDINMAGEPKPDR” the “soluble on expression in E. coli” value was “soluble”.
With “MKSPIVSANLVTRDNDKIAEKTGNIYESLVVISRRARQISIKIKEELNSKLAEFASKEDNLEEIFENREQIEISKYYERMPKPSTLATEEFLEDKVMFRHTGIASATPRKEDEK” the “soluble on expression in E. coli” value was “not soluble”.
For “EPGSSEGLGLLNVHTVLTGSKQLTKTEAVLNLNNQKAKVKGYEIHVGRSQVLDEQPLELDNGECDGAISECGQIMGTYLHGFFDEAEALNLITEWVNGTQVKQQDFEVLKEQGINRIADAIEQHMNLDFLFK”, the “soluble on expression in E. coli” value was “not soluble”.
For “MAFQQPNLQQIFSSVDKDRSGQISSDELQTALSNGTWNPFNPETCRLMIGMFDSNGDGAINFQEFQALWRYINDWTNCFRGFDTDGSGNIDKSELTNALTQFGYRLSPQFYNILMHKFDRSHSNRINFDDFIQLCVVLQTLTAAFRLEIRAKIDLEI”, the “soluble on expression in E. coli” value was “not soluble”.
With “MARLLEEHGFETKTNVIVQGNCVEQEIDVVAERDGERYMIECKFHNIPVYTGLKEAMYTYARFLDVEKHGFTQPWIFTNTKFSEEAKKYAGCVGIKLTGWSYPEKEGIEVLLESKGLYPITILRIDKEVLDELVRAGLVFCRDVVSAGEEKLREIGLSAKKAREVIAEAKKVIG” the “soluble on expression in E. coli” value was “soluble”.
With “MSVTQIDLDDEALADVMRIAAVHTKKEAVNLAMRDYVERFRRIEALARSRE” the “soluble on expression in E. coli” value was “soluble”.
For “MGSDKIHHHHHHMMDKEIENGSVNVDLLELEKFNQLAHRWWDPNSEFKPLHEINPLRLGYIDRHARLAGKDVLDVGCGGGILSESMAESGAQVTGIDLGDKALKVAKLHLLESGNKVNYRKSSVEALAAEQPHHYDVVTCMEMLEHVPDPVSTVRACAELAKPGGWVFFSTINRNPKSYLFAVIGAEYVLNLLPRGTHDYAKFIKPSELGRMAREAGLDVQEVIGMSYNPITKVYSLGQDTDVNYIMAFRA”, the “soluble on expression in E. coli” value was “not soluble”.
In the case of “MGSDKIHHHHHHMKHTLLIKDWLYSFLSLWFPRCCVVCGGSLAKGEECICTMCNINLPRTDYHLRKDNPVEKLFWGKFPLERATSFFFYRKGSDFRQVLHQLKYGGQKEIGAIMGRYMASELQASDFFHGVDVIIPIPLHKKKQQIRGYNQSEWISRGIMAVTGIPVDTEAIIRRKNTETQTQKSALERWENVDGIFELHRSEYLAGKHILIVDDVLTTGATTVACASRLAEIEGVRISVLTLAMAE”, the “soluble on expression in E. coli” value was “not soluble”.
For “MTVIQTHGLTKRYGRVVAVEDLNLSVREGEVYGLLGPNGSGKTTTILMLLGLTEPTSGEARVLGFDPMREPLKVKSRVGYLPDQVGFYGELSAWENLRYTTRLLGLPDKEAEARIEEVLKRMGLWEVRDRKVAAFSRGMRQRLGLAEVLLKRPKVAILDEPTLGLDPEAAREFLDLIKGLKAEGITVLLSSHLLHQVQEVCDRVGLFHKGRLALEGTVAELAHRVLGGQYEILLEGAPGLEGALEAVEGVSRVEAEGGRYRVLATRDLRPELARLVVERGPLYALSLRQPSLDEIYAHYFKEVAHAA”, the “soluble on expression in E. coli” value was “soluble”.
With “MGSDKIHHHHHHMIDFLLLKSLHSLLGLTITVCDQNFSVIREYKSEKTISLFYNHYLILSNFSKTQHDFLFHYGSLGELFLVHHIQQYYIIIGPWRSNVIDPLLLKKKLTETQINASEQDYFIDRLSQLPFFSLSQIRELLIVTNYCLTGVVKDKLSEPLHYYTKGWSNSFDLDKIKQFSKQNMSSYKYQYHFENNILKAVKSGSEFLLKETVEQFSNSIVPIISGDELRSEKNYSIMIYDRLSQATIQAGLDIETAYRARDRFIKENESTISLNEVLKLRDTAILFYTQQVHSLKKHLETPHSQTIVAVIRYLENNLNRFIKTEEIAKECHMSESKLRKLFKQEKHITIQQYFLNLKIEAAKQLLDENKKVEEVSNLLGFSTSSNFSRTFKKIVGISPLEYKQKPKTI” the “soluble on expression in E. coli” value was “not soluble”.
With “SNCRSEVLEVSVEGRQVEEAMLAVLHTVLLHRSTGKFHYKKEGTYSIGTVGIQDVDCDFIDFTYVRVSSEELDRALRKVVGEFKDALRNSGGDGLGQMSLEFYQKKKSRWPFSDECIPWEVWTVKVHVVALATEQERQICREKVGEKLCEKIINIVEVMSRHEYLPKMPTQSEVDNVFDTGLRDVQPYLYKISFQITEALGTSVTTTMRRLIKDTLAL” the “soluble on expression in E. coli” value was “soluble”.
In the case of “MAHHHHHHMEMHATHVAACSLRRLRSSAVTSRVMTSTHLSLPCRLKSYVLKFLRGQLPEDLKDLNGALGCLYGTLPDVDEFGQFVIAPEIVERFHQLGYIKLPRPVLDAQQVDKLADEVNELANNVEHHPKTEKLYATSLANLTEGPLFYCQGQWRAAWGMHDLIYLPTITVAASQILGNSIVRLWYDEVFMKEARKGPCVPWQQNYARWQHTTPVNHVTVMIALDTMNKDRGAPCLVPGSHRWREGGLLPSVPYDPAKDEAQQLNTIWEITNEEESEMLMDTPPATVDMKRGEALLIHPLTLFATHGNRSLDAVRCCFIHYMGGKTYATQNGPLLPHTTQFQAGAMIQGPFYPVVFDPAMTEELAMLPGESAAQKDITEEV”, the “soluble on expression in E. coli” value was “soluble”.
In the case of “MYKQILVPVDLNDQGFSDRAVELAVWQAKQANAEIHLLTVLPGIHMSMVATYFPKDAAAKMKQDVKQQLKAFASEHIDDEVIYKVHVAEGKAYATILDYAERLGADLIIMPSHKRSKINKVMLGSVASKVVEYSPINVMVVKPQG”, the “soluble on expression in E. coli” value was “not soluble”.
In the case of “MSDGSDDDTNNDGNYCKNVSYNFLIQRLAEVSNRKCLLLPKKKNRVDYISIMQTAEFYPELVNSSPPLEPGFTSCEVFVVDKKVDKDTLHLDNFSPYHIGATRRTLERQHSYFYRVNESGNFVPAIKTNGTHILRILVSILGSCPALNRKIYRMVKIESQNKNCLPSLIVYTFEPGHEIPKPNAPAILRRQTSDEIQKILNIPGTSFSQAHSEAVLNRFYDDLPIRDEASDQKRARYSIESTSSTNNQLNEINSFVVPKFEGRQESEQLFRDVKVEQFEESAEISINNRALSPHIQPSKTSVVNRPNQQNRKFQNYDMFSAGVISTATVPAPMFHPHITPIADLKDDDGYDPEELTQRNKLASLYRLVDLFRWSQGIYNHITVRVSTDPDEILINAFGQLYSEVSASSLIKVDLDGTVIDGGSTNFGVNQAGYVLHSAIHNGRPEVKCVVHLHHPSVVAVSAQKCGLLPISQESMIVGDVGYHEYRGILIDEAERALLVRDLGDRNVMILRNHGFVVCGESIEHALSLTYHLIIACETQIRTVPGGNTDNVHFPAQSAIKQVYKVASQGGGGVNRQNGHVNSMQWKKGELEWQAYMRQLDAQGYVTGNVPN”, the “soluble on expression in E. coli” value was “not soluble”.
For “MSFFDELKTSLEEAVEIKQGLKEPARVTRYEIADVKAIREQLNVSQSEMAKALGTSVDTIKSWESKRRNPTGLAAKVLATIKENPAFFRELASH”, the “soluble on expression in E. coli” value was “not soluble”.
For “MRLVDLRSDTLTRPTPAMRKAMAEAEVGDDAYGEDPTVNRLEALAAERLGFERALFLPSGTMANQVALLLHLPKELEAEARRYRKLLGGGWRQAGVLAAAGILALEEGPKHLRRDHEMARALAEGLFRLGLAVDLGAVETNMVYLEVEDPEGFLQGLRARGVLAGRVGGRVRFVTHRDLMDEDIPLALERVQDLLHSRPR”, the “soluble on expression in E. coli” value was “soluble”.
With “MGSDKIHHHHHHMQRSPIRRSNYTPRNEKGLEGVIELQLNVVSDYLHVGSGKYDVEVMRSVSDVKRLVEDYLSGGNKRIPNNVDQYFSMVAFLMVRNKDNVVIPGSTIKGMVRSRLELSVPGSCYIVTGHSTSSSAVYKRIFNPDPNRGSDRFDVNKFPQVCPVCDLLGNMGLASRVSLSDFVMTSGKVDYVNVKGRDYEVVTKGSIFAGKVLYKSLKPVEIGMLLYGFGFVKDCNGSKVMLLGRFKFSDKRFGRVKFSLKTPIADCNKLVSDFVKQFNPRYINEEW” the “soluble on expression in E. coli” value was “not soluble”.
In the case of “MGSDKIHHHHHHMVINIEQAIAWMASRKGKVTYSMDYRNGPSSYDCSSSVYFALRSAGASDNGWAVNTEYEHDWLIKNGYVLIAENTNWNAQRGDIFIWGKRGASAGAFGHTGMFVDPDNIIHCNYGYNSITVNNHDEIWGYNGQPYVYAYRYARKQSNAKVDNQSVVSKFEKELDVNTPLSNSNMPYYEATISEDYYVESKPDVNSTDKELLVAGTRVRVYEKVKGWARIGAPQSNQWVEDAYLIDATDM”, the “soluble on expression in E. coli” value was “not soluble”.
For “MARFSGKVALITGSSNGIGRAAAILFAQQGAKVTITGRNAERLKETRHEIKKSGIPAENILAIVADVITDEGQMRLINDTVRKFGHLDILVNNAGGALMDAQGRVGMDQDISVFDNTMQINMRSVVTLVQKAKEHLIKSKGEIINVSAMAAGHHGDPIATFYGMSKAALDQFTRSSAISLIQHGVRVNSVSPGFTKTGFGEAMGFPPIAMKKVISFYESHKECAPSGAIAQPGDIAQVILFLADRTMSSYIIGQSIIADGGSSLVMGMHAHDMLDILKA”, the “soluble on expression in E. coli” value was “not soluble”.
With “MMKIAIIGSGISGLTCGYYLHRYHDITLFEANDYIGGHTATVDVELAGKPYAVDTGFIVYNDRTYPNFIKMMDEIGVQGKPTQMSFSVRNDANGLEYNGHTLTTLFAQKRNWLNPKFYRFIAEILRFNRLTKACVDNQLANEQTLGDFLAQHQFSEYFCENYILPMGAAIWSSSLADMRAFPLMFFARFFLNHGLLDVTNRPQWYVIPGGSRSYIAPLTQGFGDRIRLNSAVTQVKRLPSGVEVVVNGRSERFDEVIFACHSDQALAMLSDASSTEQQLLSALAYQANEVVLHTDTRLLPKRKAAWAAWNYWLKGEANQETRLPSLTYNMNILQHIEAPETFCVTLNSSEDIDPSKILRRFTYHHPVFSRPAIEAQQKKAQISGVNHTWFCGAYWHNGFHEDGVRSALDVVTQLEAYAQRSEQGAALEHHHHHH” the “soluble on expression in E. coli” value was “soluble”.
For “MKFDNKAPIYIQIMDKIKIDIINGTLKPGDKLPSVREMAVKFKVNPNTLQRVYQELERENITYTQRGTGSFVREDSDMIINLKKEMASEVIENFIENIKEFGFGNKDILKIVEDKLNEEEK”, the “soluble on expression in E. coli” value was “soluble”.
